From article doi:10.1101/2022.09.29.510132 (bioRxiv, 2022)

T1: E6AP AZUL (UniProt Q05086 24-87)
T1 construct: AZUL domain of E6AP/UBE3A; Used unlabeled or 15N-labeled; source: expressed and purified as described previously (Buel et al., 2020)
T1 sequence: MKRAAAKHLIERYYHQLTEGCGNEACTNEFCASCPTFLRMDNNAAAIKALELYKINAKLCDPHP


Tests used:
[1] = target: T1, E6AP AZUL; assay: NMR titration; unlabeled UBQLN1 constructs added to 0.05 mM 15N-E6AP AZUL; 1H-15N HSQC; Buffer E (10 mM MOPS pH 6.5, 50 mM NaCl, 5 mM DTT, 10 μM zinc sulfate), 25 °C; details: both partners purified
[2] = target: T2, UBQLN2 (UniProt Q9UHD9 1-624); assay: recruitment to phase-separated droplets (confocal fluorescence microscopy, in vitro); 50 µM UBQLN2 construct with 25 µM AZUL-mEGFP or EGFP in 20 mM NaPO4, 200 mM NaCl, 2.5 µM ZnSO4 (pH 6.8) at 37 °C; details: both partners purified
T2 construct: UBQLN2 full-length construct; Phase separates into droplets at 37 °C with 200 mM NaCl; also called UBQLN2 full-length; source: E. coli BL21 (DE3), purified (glutathione sepharose, PreScission cleavage, SEC); not shown: GST, N-terminal, cleaved

| binding result [1] | binding result [2] | Binder |
| --- | --- | --- |
| binds |  | QNPEVRFQQQLEQLSAMGFLNREANLQALIATGGDINAAIERLLGSQPS (domain or fragment, UniProt Q9UMX0 541-589, looked up, The construct contains a tyrosine residue in the tag to enable quantitation at A280; source: E. coli BL21 (DE3), purified (glutathione sepharose, PreScission cleavage, SEC); not shown: GST, N-terminal, cleaved) [UBQLN1 UBA (541-589)] |
|  | binds | AZUL-mEGFP (domain or fragment, UniProt Q05086 24-87, looked up, E6AP isoform II residues 24-87 (AZUL); AZUL and mEGFP are separated by a TEV protease cut site; A206K is numbered relative to avGFP (A207K relative to EGFP); also called E6AP isoform II 24-87 with a C-terminal mEGFP; source: E. coli BL21 (DE3), purified (glutathione sepharose, PreScission cleavage, SEC); not shown: GST, N-terminal, cleaved; mEGFP (EGFP with A206K), C-terminal, kept) MKRAAAKHLIERYYHQLTEGCGNEACTNEFCASCPTFLRMDNNAAAIKALELYKINAKLCDPHP |
